From patent US20220143136A1, “USE OF ANNEXINS IN PREVENTING AND TREATING MUSCLE MEMBRANE INJURY” (NORTHWESTERN UNIVERSITY, priority 2018, published 2022)
Entries after “also recorded” stand apart in the source; their conditions may differ.

What was measured:
[1] = tested on: tibialis anterior muscles of wildtype mice; assay: Cardiotoxin injury, intramuscular recombinant annexin A6, Evan's blue dye uptake; assay type: in vivo, mouse; settings: for decrease in Evan's blue dye uptake (fluorescence over muscle area): 25 μg/ml intramuscular 2 hours before cardiotoxin, harvested 3 hours post injury, vs control muscle; for cardiotoxin-induced muscle damage, dye uptake by gross imaging: intramuscular pretreatment vs control
Description: Cardiotoxin Injury and analysis. […] Additionally, mice were injected intraperitoneally with Evans' blue dye at 5 μl/g body weight (E-2129; Sigma-Aldrich, St. Louis, Mo.) dissolved in phosphate-buffered saline at 10 mg/mL. […] Cardiotoxin injury was performed injecting 20 μl of a 10 μM cardiotoxin (discontinued, Sigma-Aldrich) solution in PBS in tibialis muscles in sedated animals (3% isoflurane, 0.8 l/min O2) 2 hours post pretreatment. Cardiotoxin was released down the midline of the muscle to induce a homogenous area of injury at the center of the muscle. 3 hours post cardiotoxin injection muscle was harvested and frozen in liquid nitrogen.
Immunofluorescence microscopy. Sections (10 μm thick) from the center of frozen-embedded muscles were collected on the cryostat (chamber, −20° C.; sample, −15° C.; catalog number CM1950; Leica, Wetzlar, Germany) for immunostaining. Tissues were fixed with 4% paraformaldehyde for 10 minutes on ice. Block and permeabilization were with 0.1% Triton (catalog number X-100; Sigma-Aldrich), 10% fetal bovine serum, and PBS for 60 minutes. For dystrophin detection, anti-dystrophin (ab15277; Abcam, Cambridge, Mass.) was used at a dilution of 1:100 overnight at 4° C. Sections were PBS rinsed, incubated with secondary antibody goat anti rabbit (A11008, Invitrogen) for 1 hour, PBS rinsed, and mounted in vectashield with DAPI (H-1200, Vector Laboratories). Imaging was performed using a Zeiss Axio Observer A1 microscope (Zeiss, Oberkochen, Germany), using a 10× objective. ZEN software (Zeiss, Jena, Germany) was used for acquiring images. Fluorescence quantitation and muscle area were performed using FIJI (NIH). Surface plots were created in FIJI (NIH). Fluorescence volume was quantified using Imaris Software v9.1.2.
Cardiotoxin Injury and analysis. […] Additionally, mice were injected with Evans' blue dye at 5 μl/g body weight (E-2129; Sigma-Aldrich, St. Louis, Mo.) dissolved in phosphate-buffered saline at 10 mg/mL cardiotoxin injury was performed injecting 20 μl of a 10 μM cardiotoxin solution in PBS in tibialis anterior or gastroc/soleus muscles in sedated animals (3% isoflurane, 0.8 l/min O2) 2 hours post pretreatment. Cardiotoxin was released down the midline of the muscle to induce a homogenous area of injury at the center of the muscle. 3 hours post cardiotoxin injection muscle was harvested.
Evans blue dye uptake. […] Fluorescence quantitation, surface plots, and muscle area were performed using FIJI (NIH). For whole tissue dye quantification, whole tissue was dissected, finely minced, weighed, and incubated at 55° C. in 1 mL of formamide for 2 hours. Spectrophotometric absorbance was measured at 620 nm.

[2] = tested on: myofibers; assay: Bleb formation and intracellular Ca2+ fluorescence (GCaMP5G, Fluo-4) after laser injury with annexin overexpression; assay type: cell-based, mouse; settings: for internal GCaMP5G Ca2+ fluorescence at the site of injury: vs GCaMP5G alone
Description: (§1) Electroporation, myofiber isolation, laser injury, cap and vesicle measurement. Flexor digitorum brevis (FDB) fibers were transfected with endo-free plasmid DNA by in vivo electroporation. Methods were described previously in (Demonbreun and McNally, 2015; Demonbreun et al., 2016b; DiFranco et al., 2009). Z-stack projections were acquired from consecutive acquisitions after the final time-lapse frame, approximately 4 minutes post damage, with a […] step size between slices. Z-stack renderings were constructed in FIJI. Measurement of the cap area and feret diameter were conducted from a single slice near the middle of the z-stack using FIJI imaging tools. Fibers expressing similar levels of tagged or GCaMP5G protein were compared. GCaMP5G Ca^2+ fluorescence was measured from the acquired timelapse images, using a standard rectangular ROI, placed inside the myofiber below the site of damage using FIJI. Fluorescence was expressed as F/F0. External vesicle number and GCaMP5G area were measured from endpoint z-stacks and max projection images using FIJI. Vesicles were considered external if they were found outside the sarcolemma assessed in brightfield and fluorescent channels. All measurements were acquired from myofibers isolated from at least n≥3 mice, n≥3 myofibers per mouse.
as §1, with “(Demonbreun A R, Quattrocelli M, Barefield D Y, Allen M V, Swanson K E,” for “(Demonbreun”, “McNally E M. An actin-dependent annexin complex mediates plasma membrane repair in muscle. The Journal of cell biology. 2016; 213(6):705-18; Demonbreun A R, and McNally E M. DNA Electroporation, Isolation and Imaging of Myofibers. Journal of visualized experiments: JoVE.” for “McNally,”, “106(106):e53551;” for “Demonbreun et al., 2016b;”, “M, Quinonez M, Capote J, and Vergara J. DNA transfection of mammalian skeletal muscles using in vivo electroporation. Journal of visualized experiments: JoVE. 2009; 32(32)).” for “et al., 2009).”
Calcium and pH indicator dye measurements. Wildtype FDBs were isolated and plated in Ringers on Matek glass-bottom dishes as described above. Twenty minutes prior to imaging, myofibers were loaded with Fluo-4 AM at 37° C. (F10489, ThermoFisher Scientific, Waltham, Mass.) or pHrodo AM (P35373, ThermoFisher Scientific, Waltham, Mass.) as described in the instruction manual. Fibers were rinsed once with Ringers then subsequently damaged and imaged on the Nikon A1R GaSP, as described above. Fluorescence intensity was measured using FIJI (NIH). phRodo change in fluorescence intensity was calculated as F/F0. Data was acquired from n=3 mice per experiment from multiple myofibers per mouse. […]

Molecule	decrease in Evan's blue dye uptake (fluorescence over muscle area) [1] [%]	decrease in Evan's blue dye uptake (fluorescence over muscle area) ([1]; listed as rANXA6)	cardiotoxin-induced muscle damage, dye uptake by gross imaging [1]	cardiotoxin-induced muscle damage, dye uptake by gross imaging ([1]; listed as rANXA6)	internal Fluo-4 Ca2+ fluorescence at the site of membrane injury ([2]; annexin A6 overexpression vs control myofibers)	size of GCaMP5G-containing blebs ([2]; annexin overexpression vs annexin A1, A2 or GCaMP5G alone)	number of extracellular (GCaMP5G-positive) blebs at the membrane lesion ([2]; annexin overexpression vs annexin A1 overexpression or GCaMP5G alone)	internal GCaMP5G Ca2+ fluorescence at the site of injury ([2]; first 20 seconds post injury)	internal GCaMP5G Ca2+ fluorescence at the site of injury ([2]; over 240 seconds of imaging)	internal GCaMP5G Ca2+ fluorescence at the site of injury ([2]; over 240 seconds of imaging, listed as A6)
recombinant annexin A6: recombinant human annexin A6 protein with C-terminal HIS tag (5186-A6-050, R&D systems); mouse protein from Northwestern core in one cohort (protein, UniProt P08133 2-673, looked up, C-terminal His tag, recombinant human annexin A6 protein with C-terminal HIS tag (5186-A6-050, R&D systems); mouse protein from Northwestern core in one cohort) Annexin A6: AKPAQGAKYRGSIHDFPGFDPNQDAEALYTAMKGFGSDKEAILDIITSRSNRQRQEVCQSYKSLYGKDLIADLKYELTGKFERLIVGLMRPPAYCDAKEIKDAISGIGTDEKCLIEILASRTNEQMHQLVAAYKDAYERDLEADIIGDTSGHFQKMLVVLLQGTREEDDVVSEDLVQQDVQDLYEAGELKWGTDEAQFIYILGNRSKQHLRLVFDEYLKTTGKPIEASIRGELSGDFEKLMLAVVKCIRSTPEYFAERLFKAMKGLGTRDNTLIRIMVSRSELDMLDIREIFRTKYEKSLYSMIKNDTSGEYKKTLLKLSGGDDDAAGQFFPEAAQVAYQMWELSAVARVELKGTVRPANDFNPDADAKALRKAMKGLGTDEDTIIDIITHRSNVQRQQIRQTFKSHFGRDLMTDLKSEISGDLARLILGLMMPPAHYDAKQLKKAMEGAGTDEKALIEILATRTNAEIRAINEAYKEDYHKSLEDALSSDTSGHFRRILISLATGHREEGGENLDQAREDAQVAAEILEIADTPSGDKTSLETRFMTILCTRSYPHLRRVFQEFIKMTNYDVEHTIKKEMSGDVRDAFVAIVQSVKNKPLFFADKLYKSMKGAGTDEKTLTRIMVSRSEIDLLNIRREFIEKYDKSLHQAIEGDTSGDFLKALLALCGGED	50	approximately 50%	reduced	decreased	–	–	–	–	–	–
annexin A6: annexin A6 with carboxyl-terminal turboGFP or tdTomato tag, expressed from plasmid electroporated into myofibers (protein, UniProt P14824 2-673, looked up, C-terminal turboGFP or tdTomato tag, annexin A6 with carboxyl-terminal turboGFP or tdTomato tag, expressed from plasmid electroporated into myofibers) Annexin A6: AKIAQGAMYRGSVHDFPEFDANQDAEALYTAMKGFGSDKESILELITSRSNKQRQEICQNYKSLYGKDLIEDLKYELTGKFERLIVNLMRPLAYCDAKEIKDAISGVGTDEKCLIEILASRTNEQMHQLVAAYKDAYERDLESDIIGDTSGHFQKMLVVLLQGTRENDDVVSEDLVQQDVQDLYEAGELKWGTDEAQFIYILGNRSKQHLRLVFDEYLKTTGKPIEASIRGELSGDFEKLMLAVVKCIRSTPEYFAERLFKAMKGLGTRDNTLIRIMVSRSELDMLDIREIFRTKYEKSLYSMIKNDTSGEYKKALLKLCGGDDDAAGQFFPEAAQVAYQMWELSAVSRVELKGTVCAANDFNPDADAKALRKAMKGIGTDEATIIDIVTHRSNAQRQQIRQTFKSHFGRDLMADLKSEISGDLARLILGLMMPPAHYDAKQLKKAMEGAGTDEKTLIEILATRTNAEIRAINEAYKEDYHKSLEDALSSDTSGHFRRILISLATGNREEGGENRDQAQEDAQVAAEILEIADTPSGDKTSLETRFMTVLCTRSYPHLRRVFQEFIKKTNYDIEHVIKKEMSGDVKDAFVAIVQSVKNKPLFFADKLYKSMKGAGTDEKTLTRVMVSRSEIDLLNIRREFIEKYDKSLHQAIEGDTSGDFMKALLALCGGED	–	–	–	–	Reduction; also recorded: significantly decreased	significantly larger	significantly more blebs	significant reduction	most significant reduction	significant reduction
